Laboratory results published in patent publication US20240002500A1 (GUANGDONG FAPON BIOPHARMA, published 2024).

What was measured:
[1] = target: T1, human Tigit extracellular domain recombinant protein hTigit-his (Acrobiosystem, Cat.TIT-H2H3) (human, UniProt Q495A1 22-141); assay: BLI epitope binning (ForteBIO QKe), hTigit-his on anti-Penta-HIS sensor; competitor R0300
T1 construct: extracellular domain; Bought; not shown: his tag
T1 sequence (looked up): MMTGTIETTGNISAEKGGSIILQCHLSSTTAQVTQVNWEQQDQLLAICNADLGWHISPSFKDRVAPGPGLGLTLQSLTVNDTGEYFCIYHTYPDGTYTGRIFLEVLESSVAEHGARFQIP
Protocol: (§1) Epitope competition analysis was performed on an anti-human TIGIT antibody with an MD ForteBIO QKe platform. An experimental method included: a human Tigit extracellular domain recombinant protein hTigit-his (Acrobiosystem, Cat.TIT-H2H3, lot-1336-76GF1-F9) carrying a his tag was diluted with an equilibration buffer (1×PBS+0.02% Tween 20), until the final concentration was 1.5 μg/ml. The anti-human Tigit antibody was diluted with the equilibration buffer (1×PBS+0.02% Tween 20), the final concentration being 5 μg/ml. After an anti-Penta-HIS biosensor (ForteBIO, Cat. 18-5122) was fully hydrated, first the hTigit-his recombinant protein was solidified for 180 seconds, then equilibrated for 30 seconds, and bound to the first anti-human Tigit antibody for 180 seconds, then equilibrated for 30 seconds, and then bound to the second anti-human Tigit antibody, binding time being 300 seconds. The whole reaction was performed at 25° C. and 1000 rpm; and finally, Octet analysis software was used to perform epitope binning analysis.

[2] = target: T1, human Tigit extracellular domain …; assay: BLI epitope binning (ForteBIO QKe), hTigit-his on anti-Penta-HIS sensor; competitor R0223
Protocol: as §1

epitope binning signal (name and unit not given) [1]: 0.544
epitope binning signal (name and unit not given) [2]: 0.0383
B1: Tigit-18 (antibody, V domains shown)
VH: QVQLQQPGAELVRPGASVKLSCKASGYSFTSYWMNWVKQRPGQGHEWIGMIHLSNSETRLNQNFLDKATLTVDKSSSTVYLQLSSPTSEDSAVYYCARERDYYGSSYFDYWGQGTTLTVSS
VL: DIVMTQSPASLVVSLGQRATISCRTSQSVSTSSYSYMHWYQQKPGQPPKLLIKNASNLESGVPARFSASGSGTDFTLNIHPVEEEDAATYYCQHSWEIPRTFGGGTKLEIK
